Here are results for seven substances from US7816094B2, “Method for quantitative analysis of interactions between HIF-1alpha C-terminal peptides and CBP or p300 proteins and method of screening inhibitors using the same” (Korea Institute of Science and Technology, priority 2006, dated 2010).

The target in experiment [1] is T1, GST-CBP (truncated human CBP, amino acids 1-450) (Homo sapiens, UniProt Q92793).
T1 construct: made in house; host or cells: E. coli BL21
The experiment is described as follows: Fluorescence polarization (FP)-based binding assay of fluorescein-labeled HIF-1α peptides with GST-CBP. The settings on record: GST-CBP 0 to 3000 nM; FIG. 2A. On the procedure:
(§1) The binding affinity and features between the HIF-1α peptides and CBP or p300 proteins were analyzed by measuring the fluorescence polarization (FP) values that were changed by the formation of a protein-ligand complex through the interaction between the CBP or p300 proteins and the synthesized peptides that were manufactured by the method as described in above Example 1. The FP values were measured with a fluorescence spectrometer (Perkin-Elmer), which was set to have a slit width of 5 nm and a total integration time of 5 seconds. EBC Buffer (50 mM Tris and 120 mM NaCl; pH 8.0, 0.25% Nonidet P (NP)-40) was used for the binding reaction.
Because the cysteine-/histidine-rich 1(CH1) domain of CBP or p300 proteins that binds the C-terminal transactivation domain (C-TAD) of HIF-1α contains the Zn^2+-coordinating centers, an embodiment of the present invention first tested for the importance of Zn^2+ added in the preparation of CBP or p300 proteins by cell lysis and protein elution on their binding to the HIF-1α-derived peptides, wherein the GST-CBP or GST-p300 proteins containing the CH1 domain were prepared by cell lysis and protein elution in the presence or absence of ZnSO4. […] Then, the FP (fluorescence polarization) values were measured. […]

Experiment [2] has as its target T2, GST-p300 (truncated p300, amino acids 1-221) (Homo sapiens, UniProt Q09472).
T2 construct: made in house; host or cells: E. coli BL21
Briefly: Fluorescence polarization (FP)-based binding assay of fluorescein-labeled HIF-1α peptides with GST-p300. Conditions: increasing GST-p300 concentrations; FIG. 2B, 3B, 4C, 5B, 5D. As to the method: as §1
Because the cysteine-/histidine-rich 1(CH1) domain of CBP or p300 proteins that binds the C-terminal transactivation domain (C-TAD) of HIF-1α contains the Zn^2+-coordinating centers, an embodiment of the present invention first tested for the importance of Zn^2+ added in the preparation of CBP or p300 proteins by cell lysis and protein elution on their binding to the HIF-1α-derived peptides, wherein the GST-CBP or GST-p300 proteins containing the CH1 domain were prepared by cell lysis and protein elution in the presence or absence of ZnSO4. 800 nM of CBP or p300 proteins in the EBC Buffer prepared from above Example 1 were mixed with 100 nM of F-HIF-1α(776-826, SEQ ID NO: 3) and F-HIF-1α(786-826, SEQ ID NO: 4) peptides at 25° C., respectively. Then, the FP (fluorescence polarization) values were measured.
To compare interactions between the four peptides derived from different regions in HIF-1α C-TAD with CBP or p300, these fluorescein-labeled HIF-1α peptides were mixed with CBP proteins at varying concentrations from 0 to 3000 nM under the conditions of above Example 2-2, and then the FP (fluorescence polarization) values were measured (FIG. 2A).
The dissociation constants of these two peptides were determined to be 157.3 nM for HIF-1α(776-826, SEQ ID NO: 3) and 180.1 nM for HIF-1α(786-826, SEQ ID NO: 4), respectively.

For experiment [3], the target named is T3, GST-p300 / F-HIF-1α-(786-826, SEQ ID NO: 4) interaction (Homo sapiens, UniProt Q09472).
T3 construct: made in house; host or cells: E. coli BL21 for GST-p300; the tracer peptide was synthesized by Anygen
Briefly: Competitive inhibition analysis of the FP-based binding assay (F-HIF-1α-p300 interaction). The settings on record: compared with wild-type peptide; FIG. 6. On the procedure: To compare the importance of Thr-796, Cys-800, and Asn-803 residues in the HIF-1α peptide on its p300 binding activity, an embodiment of the present invention performed competitive inhibition analyses of the FP-based binding assays using single mutant peptides. The mutant peptides were prepared with the method as described below.
Namely, human HIF-1α-(786-826, SEQ ID NO: 4) and its single mutation products prepared by PCR were subcloned into pGEX-2T-1 (Amersham Biosciences), and overexpressed in E. coli BL21 (DE3). After the GST fusion proteins were purified using glutathione-SEPHAROSE (Amersham Biosciences), followed by GST removal with thrombin treatment, the resulting peptides were purified using reverse-phase HPLC and confirmed by MALDI-TOF mass spectrometry. The results of competitive inhibition for HIF-1α-(786-826, SEQ ID NO: 4) peptides with point mutations on the HIF-1α-p300 interaction are depicted in FIG. 6.

Ends that are not written are not given here. * marks the point of attachment. FITC = O=C1OC2(c3ccc(O)cc3Oc3cc(O)ccc32)c2ccc(NC(=S)*)cc21; Ahx = NCCCCCC(=O)O

T2 sequence (Q09472 300-520): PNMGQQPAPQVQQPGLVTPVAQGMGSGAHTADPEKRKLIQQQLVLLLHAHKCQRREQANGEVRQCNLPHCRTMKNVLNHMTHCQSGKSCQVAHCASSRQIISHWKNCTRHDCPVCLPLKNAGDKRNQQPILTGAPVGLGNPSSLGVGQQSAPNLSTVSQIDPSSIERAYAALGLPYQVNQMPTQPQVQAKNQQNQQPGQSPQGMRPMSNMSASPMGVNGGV
T3 sequence (Q09472 300-520): as above
T1 sequence (Q92793 1-450): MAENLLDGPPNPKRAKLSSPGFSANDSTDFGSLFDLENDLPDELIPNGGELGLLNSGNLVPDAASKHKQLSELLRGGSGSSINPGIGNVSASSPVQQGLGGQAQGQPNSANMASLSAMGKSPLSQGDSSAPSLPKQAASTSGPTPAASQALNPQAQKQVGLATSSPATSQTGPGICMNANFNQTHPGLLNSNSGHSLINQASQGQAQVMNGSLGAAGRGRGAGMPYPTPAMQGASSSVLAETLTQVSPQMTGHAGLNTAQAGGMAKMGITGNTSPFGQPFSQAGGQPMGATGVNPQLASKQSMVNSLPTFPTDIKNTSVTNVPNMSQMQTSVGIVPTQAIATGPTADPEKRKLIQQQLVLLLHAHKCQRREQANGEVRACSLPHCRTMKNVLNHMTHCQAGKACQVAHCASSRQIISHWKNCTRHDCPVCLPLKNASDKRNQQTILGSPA

Consider “FITC-ACA-DESGLPQLTSYDCEVNAPIQGSRNLLQGEELLRAL ({FITC-Ahx}-DESGLPQLTSYDCEVNAPIQGSRNLLQGEELLRAL) [HIF-1α(788-822, SEQ ID NO: 6), fluorescein (FITC)-labeled HIF-1α C-terminal peptide, residues 788-822, aminocaproic acid linker]”, for which the “FP values (change) upon mixing with GST-CBP” value in experiment [1] is given as “increased much less than those of the above two peptides”. In addition, in experiment [2], the “FP values (change) upon mixing with GST-p300” value is given as “increased much less than those of the above two peptides”. As for “T796D: unlabeled HIF-1α (786-826) peptide with single mutation T796D (SMDESGLPQLDSYDCEVNAPIQGSRNLLQGEELLRALDQVN; Amino acid sequence for HIF-1a(786-826))”, in experiment [3], the “competitive inhibition of F-HIF-1α-(786-826, SEQ ID NO: 4) binding to p300” value is on record as “to a little lesser degrees than the wild-type”. In the case of “peptide treated with N or H kinase fractions: F-HIF-1α (786-826, SEQ ID NO: 4) phosphorylated by normoxic or hypoxic HeLa kinase fractions, purified by reverse-phase HPLC”, the “FP values (change) upon mixing with GST-p300” value in experiment [2] is given as “FP increase upon incubation with GST-p300, similar to the untreated peptide”. Still for that read-out and setting: the value for “hydroxylated peptide: F-HIF-1α (786-826, SEQ ID NO: 4) hydroxylated on asparagine by recombinant His-FIH-1, purified by reverse-phase HPLC” was “only slightly increased with increasing p300 concentrations”. Regarding “N803A: unlabeled HIF-1α (786-826) peptide with single mutation N803A (SMDESGLPQLTSYDCEVAAPIQGSRNLLQGEELLRALDQVN; Amino acid sequence for HIF-1a(786-826))”, in experiment [3], the “competitive inhibition of F-HIF-1α-(786-826, SEQ ID NO: 4) binding to p300” value is on record as “to a little lesser degrees than the wild-type”.

Consider “FITC-ACA-SDLACRLLGQSMDESGLPQLTSYDCEVNAPIQGSRNLLQ ({FITC-Ahx}-SDLACRLLGQSMDESGLPQLTSYDCEVNAPIQGSRNLLQ; cysteine pairing not given here) [HIF-1α(776-814, SEQ ID NO: 5), fluorescein (FITC)-labeled HIF-1α C-terminal peptide, residues 776-814, aminocaproic acid linker]”, for which the “FP values (change) upon mixing with GST-CBP” value in experiment [1] is given as “no increase up to 3000 nM of GST-CBP”. In experiment [2], the “FP values (change) upon mixing with GST-p300” value is “no increase upon incubation with GST-p300”.

Turning to “S-nitrosylated F-HIF-1α (786-826, SEQ ID NO: 4): F-HIF-1α (786-826, SEQ ID NO: 4) treated with SNAP, S-nitrosylated on Cys-800, purified by reverse-phase HPLC”, in experiment [2], the “FP values (change) upon mixing with GST-p300” value is on record as “only minimal increase in FP with increasing p300 concentrations”.
